Test results taken from patent publication US20250129160A1.

Assays:
[1] = biological target: CCR8 P_1-12 peptide construct (human); experiment: flow cytometry, peptide construct on streptavidin beads
[2] = biological target: CCR8 P_1-35 peptide construct (full-length N-terminal peptide of human CCR8) (human); experiment: as above
[3] = biological target: CCR8 P_13-24 peptide construct (human); experiment: as above
[4] = biological target: CCR8 P_19-30 peptide construct (human); experiment: as above
[5] = biological target: T1, CCR8 P_25-35 peptide construct (human); experiment: as above
T1 sequence (chain, BAP biotinylated in vivo): CDAELIQTNGK

[6] = biological target: CCR8 P_7-18 peptide construct (human); experiment: as above
[7] = biological target: human CCR8 (human) (UniProt P51685); experiment: flow cytometry on hu CCR8+ CHO
[8] = biological target: human CCR8 (human) (UniProt P51685); experiment: flow cytometry on HUT-78 (CCR8+/CD3+)
[9] = biological target: human CCR8 (human) (UniProt P51685); experiment: flow cytometry on HUT-78 (CCR8+/CD3-)
[10] = biological target: human CD3 (human) (UniProt P07766); experiment: flow cytometry on HPB-all
[11] = biological target: cynomolgus CD3 (cynomolgus) (UniProt Q95LI5); experiment: flow cytometry on LnPx4119
[12] = biological target: human CD3 (human) (UniProt P07766); experiment: flow cytometry on HUT-78 (CCR8+/CD3+)
[13] = biological target: cynomolgus monkey CCR8 (Chinese origin) (cynomolgus monkey); experiment: flow cytometry on Cy CCR8+ CHO
[14] = biological target: cynomolgus monkey CCR8 (T4R), Mauritian origin (cynomolgus monkey); experiment: flow cytometry on Cy CCR8 (T4R)+ CHO
Chain of cynomolgus monkey CCR8 (T4R), Mauritian origin (cynomolgus monkey) (O97665 other isoform, or with tags, fused parts or gaps): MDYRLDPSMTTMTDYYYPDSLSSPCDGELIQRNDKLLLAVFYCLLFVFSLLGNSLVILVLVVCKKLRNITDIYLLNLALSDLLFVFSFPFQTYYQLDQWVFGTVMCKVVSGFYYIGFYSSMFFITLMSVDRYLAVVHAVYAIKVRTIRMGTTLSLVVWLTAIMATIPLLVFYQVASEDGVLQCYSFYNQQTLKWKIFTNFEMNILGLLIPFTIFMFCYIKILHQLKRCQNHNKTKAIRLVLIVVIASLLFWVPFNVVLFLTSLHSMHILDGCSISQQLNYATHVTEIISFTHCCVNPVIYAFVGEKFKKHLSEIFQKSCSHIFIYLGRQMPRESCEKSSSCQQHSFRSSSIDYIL

Chain of anti-CCR8 antibody clone 433H (BD 747578) (VH): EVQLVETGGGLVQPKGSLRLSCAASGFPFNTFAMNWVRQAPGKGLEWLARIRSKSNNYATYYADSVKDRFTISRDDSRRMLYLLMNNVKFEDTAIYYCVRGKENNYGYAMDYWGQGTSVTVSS
Chain of anti-CCR8 antibody clone 433H (BD 747578) (VL): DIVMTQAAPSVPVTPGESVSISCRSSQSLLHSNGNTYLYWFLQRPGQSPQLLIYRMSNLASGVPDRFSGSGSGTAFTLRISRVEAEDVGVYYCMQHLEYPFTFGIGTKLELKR
Chain of human CD3 (human) (P07766 23-207): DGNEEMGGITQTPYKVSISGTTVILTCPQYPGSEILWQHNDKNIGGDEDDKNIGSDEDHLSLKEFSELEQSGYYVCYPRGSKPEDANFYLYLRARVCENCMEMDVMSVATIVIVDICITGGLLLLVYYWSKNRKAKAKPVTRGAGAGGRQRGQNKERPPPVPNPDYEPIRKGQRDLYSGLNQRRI
Chain of cynomolgus monkey CCR8 (Chinese origin) (cynomolgus monkey) (O97665 other isoform, or with tags, fused parts or gaps): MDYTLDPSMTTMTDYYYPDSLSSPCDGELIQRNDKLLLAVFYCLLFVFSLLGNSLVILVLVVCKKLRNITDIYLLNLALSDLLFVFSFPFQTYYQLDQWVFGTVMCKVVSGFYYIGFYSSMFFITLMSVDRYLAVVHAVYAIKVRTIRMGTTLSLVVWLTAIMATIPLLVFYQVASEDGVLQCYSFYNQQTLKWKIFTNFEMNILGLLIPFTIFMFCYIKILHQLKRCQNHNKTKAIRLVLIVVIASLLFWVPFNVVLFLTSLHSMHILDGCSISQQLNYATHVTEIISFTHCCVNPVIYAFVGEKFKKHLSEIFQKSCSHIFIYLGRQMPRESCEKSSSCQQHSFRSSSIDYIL
Chain of cynomolgus CD3 (cynomolgus) (Q95LI5 22-198): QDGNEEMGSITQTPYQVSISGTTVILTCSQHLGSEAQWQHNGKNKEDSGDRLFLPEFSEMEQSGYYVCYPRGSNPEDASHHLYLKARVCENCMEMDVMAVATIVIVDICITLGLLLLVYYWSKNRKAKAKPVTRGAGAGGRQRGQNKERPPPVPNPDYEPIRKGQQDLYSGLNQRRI

Row | Substance | Median Fluorescence of Sample/Median Fluorescence of Negative Control [1] | Median Fluorescence of Sample/Median Fluorescence of Negative Control [2] | Median Fluorescence of Sample/Median Fluorescence of Negative Control [3] | Median Fluorescence of Sample/Median Fluorescence of Negative Control [4] | Median Fluorescence of Sample/Median Fluorescence of Negative Control [5] | Median Fluorescence of Sample/Median Fluorescence of Negative Control [6] | mean BL2 of the sample/mean BL2 of the secondary antibody control [7] | mean BL2 of the sample/mean BL2 of the secondary antibody control [8] | mean BL2 of the sample/mean BL2 of the secondary antibody control [9] | mean BL2 of the sample/mean BL2 of the secondary antibody control [10] | mean BL2 of the sample/mean BL2 of the secondary antibody control [11] | mean BL2 of the sample/mean BL2 of the secondary antibody control [12] | mean BL2 of the sample/mean BL2 of the secondary antibody control [13] | mean BL2 of the sample/mean BL2 of the secondary antibody control [14]
1 | anti-V5 antibody (clone SV5-Pk1; AbD Serotec, MCA 1360) | 1090 | 953 | 1300 | 1020 | 1090 | 1090 | – | – | – | – | – | – | – | –
2 | anti-FLAG antibody (clone M2, Sigma F3165/F1804) | 596 | 522 | 628 | 590 | 582 | 589 | – | – | – | – | – | – | – | –
3 | anti-CCR8 antibody clone L263G8 (BioLegend, 360602) | 0.9 | 751 | 285 | 0.9 | 0.9 | 0.9 | 40 | 9 | 6 | – | – | – | – | –
4 | control TCE molecule (CD3-based TCE molecule recognizing an irrelevant target antigen) (bispecific antibody) | – | – | – | – | – | – | – | – | – | 398 | 75 | 72 | – | –
5 | anti-CCR8 antibody clone 433H (BD 747578) | 0.9 | 290 | 300 | 0.9 | 0.9 | 0.9 | – | – | – | – | – | – | 136 | 106
